Values belong to the binder of their own block, whether it stands above or below them.
Columns and labels:
[1] = biological target: T1, mouse serum albumin (MSA, Sigma-Aldrich) (mouse, UniProt P07724 25-608); experiment: BIAcore, MSA; DMS0169 (DOM7h-11-12 AlbudAb)
T1 construct: also called mouse albumin

[2] = biological target: T2, human TNFR1 on MRC-5 cells (human, UniProt P19438 30-455); experiment: cell-based or functional assay
T2 sequence (looked up): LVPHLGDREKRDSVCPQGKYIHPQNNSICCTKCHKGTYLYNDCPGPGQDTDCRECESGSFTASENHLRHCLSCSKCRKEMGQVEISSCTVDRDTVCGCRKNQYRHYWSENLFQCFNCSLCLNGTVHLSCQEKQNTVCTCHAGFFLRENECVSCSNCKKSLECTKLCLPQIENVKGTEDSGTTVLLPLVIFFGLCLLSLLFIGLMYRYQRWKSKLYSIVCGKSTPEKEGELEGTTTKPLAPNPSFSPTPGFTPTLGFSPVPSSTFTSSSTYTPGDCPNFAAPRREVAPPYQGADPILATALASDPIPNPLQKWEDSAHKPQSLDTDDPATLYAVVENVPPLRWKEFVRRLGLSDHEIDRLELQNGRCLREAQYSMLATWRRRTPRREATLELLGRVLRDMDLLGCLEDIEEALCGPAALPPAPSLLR

[3] = biological target: T1, mouse serum albumin (MSA, Sigma-Aldrich); experiment: BIAcore, MSA; DMS0168 (DOM7m-16 AlbudAb)
[4] = biological target: T1, mouse serum albumin (MSA, Sigma-Aldrich); experiment: BIAcore; mouse albumin
[5] = biological target: T3, human serum albumin (HSA, Sigma-Aldrich) (human, UniProt P02768 25-609); experiment: BIAcore, HSA on CM5 chip
T3 construct: also called human albumin
T3 sequence (P02768 25-609 limits assumed): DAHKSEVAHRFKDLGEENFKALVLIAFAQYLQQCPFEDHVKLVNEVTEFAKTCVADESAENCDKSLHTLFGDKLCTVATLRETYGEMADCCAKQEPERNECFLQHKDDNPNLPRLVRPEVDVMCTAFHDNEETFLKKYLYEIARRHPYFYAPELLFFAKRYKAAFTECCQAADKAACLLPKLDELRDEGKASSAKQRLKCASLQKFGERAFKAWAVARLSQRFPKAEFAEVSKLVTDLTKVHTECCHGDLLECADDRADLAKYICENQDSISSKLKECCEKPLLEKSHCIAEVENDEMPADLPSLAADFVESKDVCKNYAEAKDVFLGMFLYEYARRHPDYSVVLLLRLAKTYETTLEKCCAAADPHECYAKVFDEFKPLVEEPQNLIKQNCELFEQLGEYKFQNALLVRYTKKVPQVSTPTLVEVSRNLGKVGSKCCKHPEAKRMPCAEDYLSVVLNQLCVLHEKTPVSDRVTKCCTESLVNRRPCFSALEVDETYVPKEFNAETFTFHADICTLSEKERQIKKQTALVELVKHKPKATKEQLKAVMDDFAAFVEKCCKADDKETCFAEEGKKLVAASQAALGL
Method: (§1) FIG. 23. BIAcore analysis for binding of DOM0100-AlbudAb in-line fusions to human serum albumin (HSA). HSA (Sigma-Aldrich) was coated on a BIAcore CM5 chip using EDC/NHS chemistry according to manufacturer's instructions. Subsequently, the DMS constructs, each consisting N-terminally to C-terminally of an anti-TNFR1 dAb-Linker-AlbudAb and identified in Table 6, were injected at 1 μM over the HSA surface and binding was monitored. […] The corresponding BIAcore trace for each DMS clone is indicated with an arrow.

[6] = biological target: T1, mouse serum albumin (MSA, Sigma-Aldrich); experiment: BIAcore, MSA on CM5 chip
Method: as §1, with “22.” for “23.”, “mouse” for “human”, “(MSA). MSA” for “(HSA). HSA”, “MSA” for “HSA”
After expression and purification, all constructs were tested on the BIAcore for binding to both mouse and human serum albumin. The off-rates were determined and used to discriminate between the AlbudAbs for their suitability in prolonging the half-life of the fusion molecule. Whereas the linker had little influence on the affinity of the AlbudAb for albumin, a significant difference existed between the dAbs and their albumin affinity. The best AlbudAb for mouse binding was DOM7h-11-15 followed by DOM7m-16 and DOM7h-11-12 (FIG. 22).

rat albumin = biological target: T4, rat albumin (rat, UniProt P02770 25-608); experiment: BIAcore; rat albumin
T4 construct: also called rat serum albumin
T4 sequence (P02770 25-608 limits assumed): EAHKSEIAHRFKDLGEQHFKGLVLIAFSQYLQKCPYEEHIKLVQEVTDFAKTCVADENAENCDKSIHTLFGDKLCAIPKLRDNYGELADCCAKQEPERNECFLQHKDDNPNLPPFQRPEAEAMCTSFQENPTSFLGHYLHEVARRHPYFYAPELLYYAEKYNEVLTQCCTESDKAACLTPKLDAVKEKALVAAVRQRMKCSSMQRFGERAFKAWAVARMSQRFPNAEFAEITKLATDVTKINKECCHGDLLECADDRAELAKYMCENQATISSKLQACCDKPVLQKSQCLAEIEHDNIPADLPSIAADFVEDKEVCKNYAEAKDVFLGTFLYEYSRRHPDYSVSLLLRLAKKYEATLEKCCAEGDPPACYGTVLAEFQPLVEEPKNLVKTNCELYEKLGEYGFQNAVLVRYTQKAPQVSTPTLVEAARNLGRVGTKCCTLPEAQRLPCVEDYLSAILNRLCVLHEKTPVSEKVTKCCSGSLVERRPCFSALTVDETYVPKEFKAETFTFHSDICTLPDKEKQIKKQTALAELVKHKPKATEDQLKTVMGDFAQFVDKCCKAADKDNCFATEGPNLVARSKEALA

Kd [1]: ~200 nM
ND50 (MRC5) [2]: 2.7 nM
B1: DMS0169 (bispecific antibody)
chain: EVQLLESGGGLVQPGGSLRLSCAASGFTFVKYSMGWVRQAPGKGLEWVSQISNTADRTYYAHSVKGRFTISRDNSKNTLYLQMNSLRAEDTAVYYCAIYTGRWVPFEYWGQGTLVTVSSASTSGPSDIQMTQSPSSLSASVGDRVTITCRASRPIGTMLSWYQQKPGKAPKLLILFGSRLQSGVPSRFSGSGSGTDFTLTISSLQPEDFATYYCAQAGTHPTTFGQGTKVEIKRAAAEQKLISEEDLN
notes: anti-TNFR1 dAb / AlbudAb in-line fusion

Kd [3]: ~200 nM
ND50 (MRC5) [2]: 16 nM
B2: DMS0168 (bispecific antibody)
chain: EVQLLESGGGLVQPGGSLRLSCAASGFTFVKYSMGWVRQAPGKGLEWVSQISNTADRTYYAHSVKGRFTISRDNSKNTLYLQMNSLRAEDTAVYYCAIYTGRWVPFEYWGQGTLVTVSSASTSGPSDIQMTQSPSSLSASVGDRVTITCRASQSIIKHLKWYQQKPGKAPKLLIYGASRLQSGVPSRFSGSGSGTDFTLTISSLQPEDFATYYCQQGARWPQTFGQGTKVEIKRAAAEQKLISEEDLN
notes: as for B1

Kd [4]: > 1000 nM
koff [5]: 0.17 s⁻¹
koff [6]: 0.75 s⁻¹
Kd (rat albumin): > 1000 nM
ND50 (MRC5) [2]: 6 nM
B3: DMS0182 (bispecific antibody)
chain: EVQLLESGGGLVQPGGSLRLSCAASGFTFVKYSMGWVRQAPGKGPEWVSQISNTGDRTYYADSVKGRFTISRDNSKNTLYLQMNSLRAEDTAVYYCAIYTGRWEPFDYWGQGTLVTVSSASTDIQMTQSPSSLSASVGDRVTITCRASRPIGTTLSWYQQKPGKAPKLLIWFGSRLQSGVPSRFSGSGSGTDFTLTISSLQPEDFATYYCAQAGTHPTTFGQGTKVEIKRAAAEQKLISEEDLN
notes: in-line fusion of an anti-TNFR1 dAb and an anti-serum albumin dAb (AlbudAb)

— patent US20120107330A1 (published 2012)
